In assay [1] the test system is Spontaneously Hypertensive Rats (SHR). In words: Plasma cGMP in spontaneously hypertensive rats. As to conditions: iv infusion, FIG. 9A. Type of assay: in vivo, rat. How it is done:
All rat experiments are conducted following the Animal Welfare Act and the protocol is approved by the Mayo Clinic Institutional Animal Care and Use Committee (IACUC). […] Rats are included only if they are deemed healthy by the Institutional Veterinarian Department. Investigators who conduct the in vivo study are not blinded to treatments, but biochemical analysis is performed by a different investigator who is blinded to treatment.
On the day of the experiment, SHR rats are anesthetized with inactin (120 mg/kg, intraperitoneal injection, Sigma, St. Louis, MO). Rats are then kept on a heating pad at 38° C. to maintain a normal body temperature for the entire study. Vascular and bladder cannulation procedures are conducted. Briefly, a polyethylene-50 (PE-50) tube catheter is placed into one jugular vein for peptide infusion and another PE-50 tube is placed into the carotid artery for blood pressure (BP) monitoring (Sonometrics, London, Ontario, Canada) and blood sampling. After instrumentation, a 15-minute equilibrium period follows, and a 30-minute pre-infusion period is performed to collect baseline urine samples.
Four blood samples are collected to determine circulating cGMP levels: at baseline, before the end of drug infusion, at the middle of the washout clearance period, and before the end of the washout clearance period. Any blood loss in the rats is replaced with an equal volume of saline. BP is monitored and recorded every 15 minutes beginning after the initiation of peptide infusion. All collected blood are stored at −80° C. until assayed.
For the biochemical analysis, plasma cGMP levels are measured with a cGMP ELISA kit (Enzo Life Sciences, Farmingdale, NY).

Assay [2] deals with T1, human GC-A (human), P16066.
T1 chain: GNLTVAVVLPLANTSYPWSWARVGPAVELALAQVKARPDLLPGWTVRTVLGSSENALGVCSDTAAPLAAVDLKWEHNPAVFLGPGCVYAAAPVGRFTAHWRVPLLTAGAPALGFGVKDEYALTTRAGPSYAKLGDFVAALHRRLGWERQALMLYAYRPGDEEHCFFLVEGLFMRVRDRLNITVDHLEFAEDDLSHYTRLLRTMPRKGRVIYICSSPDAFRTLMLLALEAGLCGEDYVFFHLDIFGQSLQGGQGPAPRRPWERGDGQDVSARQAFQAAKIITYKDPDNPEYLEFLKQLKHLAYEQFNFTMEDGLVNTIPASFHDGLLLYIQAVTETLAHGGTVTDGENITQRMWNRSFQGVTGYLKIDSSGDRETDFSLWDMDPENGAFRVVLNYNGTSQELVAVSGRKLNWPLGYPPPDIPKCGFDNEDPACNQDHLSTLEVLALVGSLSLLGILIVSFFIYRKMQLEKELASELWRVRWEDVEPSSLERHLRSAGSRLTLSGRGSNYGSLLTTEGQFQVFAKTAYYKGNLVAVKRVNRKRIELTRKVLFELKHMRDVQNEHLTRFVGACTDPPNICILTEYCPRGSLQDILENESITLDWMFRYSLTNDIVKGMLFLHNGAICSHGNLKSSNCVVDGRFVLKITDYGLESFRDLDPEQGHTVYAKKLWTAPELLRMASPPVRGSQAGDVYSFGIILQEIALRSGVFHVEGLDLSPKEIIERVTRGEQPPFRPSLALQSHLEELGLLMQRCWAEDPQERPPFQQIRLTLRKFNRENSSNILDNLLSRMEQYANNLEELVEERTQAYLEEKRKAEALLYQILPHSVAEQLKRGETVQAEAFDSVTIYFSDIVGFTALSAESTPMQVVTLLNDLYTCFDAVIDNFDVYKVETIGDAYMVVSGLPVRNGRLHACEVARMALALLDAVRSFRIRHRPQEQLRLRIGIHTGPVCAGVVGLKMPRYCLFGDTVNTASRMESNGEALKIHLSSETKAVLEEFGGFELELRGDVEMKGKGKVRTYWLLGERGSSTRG
As to the kind of experiment: cell-based or functional assay.

The target of assay [3] is T2, extracellular domain of GC-A recombinant protein with a C-terminal His-tag (human), P16066.
T2 chain: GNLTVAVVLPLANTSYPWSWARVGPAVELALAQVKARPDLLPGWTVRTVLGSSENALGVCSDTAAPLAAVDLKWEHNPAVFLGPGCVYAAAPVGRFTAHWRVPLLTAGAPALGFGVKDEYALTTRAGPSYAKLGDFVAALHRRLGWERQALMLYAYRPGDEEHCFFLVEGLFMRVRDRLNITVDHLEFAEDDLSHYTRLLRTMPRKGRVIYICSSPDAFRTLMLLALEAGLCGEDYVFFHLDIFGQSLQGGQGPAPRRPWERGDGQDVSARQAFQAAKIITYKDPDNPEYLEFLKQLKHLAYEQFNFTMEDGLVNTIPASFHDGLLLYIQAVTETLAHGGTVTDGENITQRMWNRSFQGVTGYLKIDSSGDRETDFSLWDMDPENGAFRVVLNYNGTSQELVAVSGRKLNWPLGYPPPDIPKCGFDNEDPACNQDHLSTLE
As to the kind of experiment: SPR (BI-4500, 25 C); His-tagged GC-A extracellular domain immobilized on Ni-NTA chip; CRRL 191 injected at 0.125, 0.25, 0.5, 1 and 2 nM.

Assay [4] concerns the target T2, extracellular domain of GC-A …. As to the kind of experiment: SPR (BI-4500), His-tagged GC-A extracellular domain on Ni-NTA chip, peptide as analyte, 25 C.

Here are results for two molecules from patent US20240116990A1, “Compositions and Methods of Treatment Using CRRL 191” (Mayo Foundation for Medical Education and Research, priority 2022, published 2024).

`CC[C@H](C)[C@@H]1NC(=O)[C@H](CCCNC(=N)N)NC(=O)[C@H](CC(=O)O)NC(=O)[C@H](CCSC)NC(=O)[C@H](CCCNC(=N)N)NC(=O)CNC(=O)CNC(=O)[C@H](Cc2ccccc2)NC(=O)[C@@H](NC(=O)[C@H](CO)NC(=O)[C@H](CO)NC(=O)[C@H](CCCNC(=N)N)NC(=O)[C@H](CCCNC(=N)N)NC(=O)[C@H](CC(C)C)NC(=O)[C@@H](N)CO)CSSC[C@@H](C(=O)N[C@@H](CC(N)=O)C(=O)N[C@@H](CO)C(=O)N[C@@H](Cc2ccccc2)C(=O)N[C@@H](CCCNC(=N)N)C(=O)N[C@@H](Cc2ccc(O)cc2)C(=O)O)NC(=O)CNC(=O)[C@H](CC(C)C)NC(=O)CNC(=O)[C@H](CO)NC(=O)[C@H](CCC(N)=O)NC(=O)[C@H](C)NC(=O)CNC1=O` [ANP, reference compound]: the “plasma cGMP levels” value in assay [1] was “increase”.
The term Kd denotes the equilibrium constant for the complex coming apart. In assay [2], RALLTAPRSLRRSSCFGHKIDRINHVSNLGCNSFRYRITAREDKQGWA (modifications not checked) [CRRL 191] had an EC50 of cGMP production, HEK293 GC-A cells, 10 min stimulation of 0.48 nM; an intracellular cGMP (Mean) at 10^-6 M peptide of 135; an intracellular cGMP (Mean) at 10^-7 M peptide of 141; an intracellular cGMP (Mean) at 10^-8 M peptide of 152. In assay [2], this molecule displayed an intracellular cGMP (Mean) at 10^-9 M peptide of 89.9, an intracellular cGMP (Mean) at 10^-10 M peptide of 35.6, an intracellular cGMP (Mean) at 10^-12 M peptide of 2.57 and an intracellular cGMP (Mean) at 10^-14 M peptide of 3.07. In addition, the Kd in assay [3] worked out at 0.128 nM. For the same molecule, the Kd in assay [4] was 0.128 nM.
